Test results as given in patent US20240218060A1 (Hoffmann-La Roche, published 2024).

Molecular target: T1, human neonatal Fc-receptor (FcRn) (human, UniProt P55899 24-297; P61769 21-119)
T1 construct: also called human FcRn; huFcRn
Test: SPR (BIAcore T100), FcRn immobilised on a CM5 chip, 200 nM antibody, PBS 0.05% Tween20 pH 6.0
Experimental: The binding properties of wild-type antibody and the mutants to FcRn were analyzed by surface plasmon resonance (SPR) technology using a BIAcore T100 instrument (BIAcore AB, Uppsala, Sweden). […] In the current assay, the FcRn receptor was immobilized onto a BIAcore CM5-biosensor chip (GE Healthcare Bioscience, Uppsala, Sweden) via amine coupling to a level of 400 Response units (RU). The assay was carried out at room temperature with PBS, 0.05% Tween20 pH 6.0 (GE Healthcare Bioscience) as running and dilution buffer. 200 nM of samples were injected at a flow rate of 50 μL/min at room temperature. Association time was 180 sec., dissociation phase took 360 sec. Regeneration of the chip surface was reached by a short injection of HBS-P, pH 8.0. Evaluation of SPR-data was performed by comparison of the biological response signal height at 180 sec. after injection and at 300 sec. after injection. The corresponding parameters are the RU max level (180 sec. after injection) and late stability (300 sec. after end of injection).

binding result: binds
B1: YTE-mutant of anti-IGF-1R antibody (antibody, human IgG1, kappa)
light: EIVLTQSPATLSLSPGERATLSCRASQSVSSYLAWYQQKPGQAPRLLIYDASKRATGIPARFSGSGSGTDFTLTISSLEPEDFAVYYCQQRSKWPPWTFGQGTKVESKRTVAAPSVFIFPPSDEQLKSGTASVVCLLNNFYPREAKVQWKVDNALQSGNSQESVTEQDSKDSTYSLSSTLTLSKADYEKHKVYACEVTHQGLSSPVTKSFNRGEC
heavy: QVELVESGGGVVQPGRSQRLSCAASGFTFSSYGMHWVRQAPGKGLEWVAIIWFDGSSTYYADSVRGRFTISRDNSKNTLYLQMNSLRAEDTAVYFCARELGRRYFDLWGRGTLVSVSSASTKGPSVFPLAPSSKSTSGGTAALGCLVKDYFPEPVTVSWNSGALTSGVHTFPAVLQSSGLYSLSSVVTVPSSSLGTQTYICNVNHKPSNTKVDKKVEPKSCDKTHTCPPCPAPELLGGPSVFLFPPKPKDTLYITREPEVTCVVVDVSHEDPEVKFNWYVDGVEVHNAKTKPREEQYNSTYRVVSVLTVLHQDWLNGKEYKCKVSNKALPAPIEKTISKAKGQPREPQVYTLPPSRDELTKNQVSLTCLVKGFYPSDIAVEWESNGQPENNYKTTPPVLDSDGSFFLYSKLTVDKSRWQQGNVFSCSVMHEALHNHYTQKSLSLSPG
notes: also called <IGF-1R> IgG1 with M252Y, S254T, T256E; anti-IGF-1R IgG1 with YTE mutation
